According to patent US12221463B2, “Method of promoting wound healing by inhibiting CCR3” (The Board of Regents of the University of Oklahoma, priority 2020, dated 2025):

T1: CCR3 (Homo sapiens, UniProt P51677)
T1 sequence (P51677 1-355): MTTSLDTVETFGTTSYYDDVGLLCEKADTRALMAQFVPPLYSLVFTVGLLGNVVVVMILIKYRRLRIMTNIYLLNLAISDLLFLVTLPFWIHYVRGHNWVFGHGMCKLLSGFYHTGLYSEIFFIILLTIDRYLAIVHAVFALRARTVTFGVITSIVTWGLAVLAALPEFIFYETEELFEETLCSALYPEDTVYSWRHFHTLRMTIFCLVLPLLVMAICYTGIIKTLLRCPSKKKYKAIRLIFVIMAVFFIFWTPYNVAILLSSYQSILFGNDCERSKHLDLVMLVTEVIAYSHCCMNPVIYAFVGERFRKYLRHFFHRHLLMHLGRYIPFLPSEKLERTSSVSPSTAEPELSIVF

B1: CCL24: CCR3-specific ligand Chemokine (C-C motif) ligand 24 (eotaxin-2), Biolegend (protein)
chain: VVIPSPCCMFFVSKRIPENRVVSYQLSSRSTCLKAGVIFTTKKGQQFCGDPKQEWVQRYMKNLDAKQKKASPRARAVA
B2: CCL26: CCR3-specific ligand Chemokine (C-C motif) ligand 26 (eotaxin-3), Biolegend (protein)
chain: TRGSDISKTCCFQYSHKPLPWTWVRSYEFTSNSCSQRAVIFTTKRGKKVCTHPRKKWVQKYISLLKTPKQL

Assays:
[1] = target: T1, CCR3; settings: CCR3 agonism; Buskermolen et al. 2017; cited from earlier work
[2] = test system: HEKn; assay: Proliferation assay (PrestoBlue); assay type: cell-based, human; settings: 16 hours
Method: Cells were plated on a collagen I coated 96-well plate (Corning, New York, NY) at a density of 4×10^3 cells per well, and then allowed to attach overnight. The next day, cells were treated with CCL24 (Biolegend, San Diego, CA), CCL26 (Biolegend, San Diego, CA), or IGF (ThermoFisher, Waltham, MA) for 16 hours. To assess viability, PrestoBlue (Life Technologies, Carlsbad, CA) was added according to manufacturer's protocol, and results were obtained on a microplate reader (BioTek, Winooski, VT).

[3] = test system: keratinocytes; settings: Kroeze et al. 2012, type IV collagen; cited from earlier work
[4] = test system: HEKn; assay: Cell exclusion zone assay (in vitro wound closure / migration); assay type: cell-based, human; settings: 16 hours
Method: HEKn were seeded (2.0×10^4 per well) around the barrier of a collagen I coated Oris Cell Migration Assay 96-well plate (Platypus, West Lebanon, NH). Cells were incubated overnight to allow for cell attachment. After incubation, the circular barriers were removed (except for reference wells), and the cells were treated with either anti-CCR3 (R&D Systems, Minneapolis, MN) (2 ug/mL), IgG control (R&D Systems, Minneapolis, MN; 2 μg/mL), CCL24 (Biolegend, […], CA), CCL26 (Biolegend, San Jose, CA), or IGF (ThermoFisher, Waltham, MA; 10 ng/mL) for 16 hours. At the end of the experiment, Calcein-AM (Life Technologies, Carlsbad, CA) (2 μM) was added prior to obtaining images with a Nikon TE2000-E inverted epi-fluorescence microscope (2× objective). ImageJ (NIH) was utilized to analyze the images.

Row | Molecule | oral wound healing [1] | keratinocyte proliferation ([2]; 20 ng/mL) | keratinocyte proliferation ([2]; 50 ng/mL) | keratinocyte proliferation ([2]; 100 ng/mL) | keratinocyte proliferation [3] | keratinocyte migration [4]
1 | CCL28: chemokine used for CCR3 agonism in cited oral wound healing study | promote |  |  |  |  | 
2 | B1 |  | significantly reduced | significantly reduced | significantly reduced | promoted | did not significantly alter
3 | B2 |  | significantly reduced | significantly reduced | significantly reduced |  | did not significantly alter
